Source: article PMC11863771 (Cell Communication and Signaling : CCS, 2025)

What was measured:
CXCR4-Rluc8 = target: T1, CXCR4-Rluc8 (human, UniProt P61073 1-352); assay: FRET or BRET; quantitative BRET saturation in HEK293A cells: fixed amount of Rluc8-tagged donor, increasing amounts of mCit-tagged acceptor, coelenterazine h 5 µM; no ligand, no further receptor coexpressed; conditions: partners not purified
T1 construct: C-X-C chemokine receptor type 4 (CXCR4), human cDNA from the Missouri S&T cDNA Resource Center; source: HEK293A, transiently transfected, in cells; not shown: Rluc8, C-terminal, kept

[1] = target: T2, CXCR4-Rluc8 (human), P61073; assay: as above; conditions: remark: other sources report otherwise
T2 chain: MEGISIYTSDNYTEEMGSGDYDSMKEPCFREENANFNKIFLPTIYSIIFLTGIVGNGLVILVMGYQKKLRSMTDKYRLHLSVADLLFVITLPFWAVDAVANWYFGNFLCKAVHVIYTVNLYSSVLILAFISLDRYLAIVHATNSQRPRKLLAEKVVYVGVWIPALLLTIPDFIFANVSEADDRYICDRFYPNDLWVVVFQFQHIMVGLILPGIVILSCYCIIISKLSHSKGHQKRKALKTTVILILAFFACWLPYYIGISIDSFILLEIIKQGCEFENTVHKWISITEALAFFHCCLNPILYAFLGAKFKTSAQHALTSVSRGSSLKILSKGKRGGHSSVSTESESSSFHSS

[2] = target: T2, CXCR4-Rluc8 (human), P61073; assay: FRET or BRET; quantitative BRET saturation in HEK293A cells, CXCR4-Rluc8 and CXCR4-mCit, without S1P1, with CXCL12 (10 nM); conditions: remark: other sources report otherwise
[3] = target: T2, CXCR4-Rluc8 (human), P61073; assay: FRET or BRET; quantitative BRET saturation in HEK293A cells: fixed amount of Rluc8-tagged donor, increasing amounts of mCit-tagged acceptor, coelenterazine h 5 µM; no ligand, no further receptor coexpressed; conditions: remark: other sources report otherwise
[4] = target: T2, CXCR4-Rluc8 (human), P61073; assay: FRET or BRET; quantitative BRET saturation in HEK293A cells, CXCR4-Rluc8 and CXCR4-mCit, with S1P1 coexpressed, vehicle; conditions: remark: other sources report otherwise
[5] = target: T2, CXCR4-Rluc8 (human), P61073; assay: FRET or BRET; quantitative BRET saturation in HEK293A cells, CXCR4-Rluc8 and CXCR4-mCit, with S1P1 coexpressed, with CXCL12 (10 nM); conditions: remark: other sources report otherwise

B1: mCit-tagged S1P3(TM4) (receptor, human)
chain: MATALPPRLQPVRGNETLREHYQYVGKLAGRLKEASEGSTLTTVLFLVICSFIVLENLMVLIAIWKNNKFHNRMYFFIGNLALCDLLAGIAYKVNILMSGKKTFSLSPTVWFLREGSMFVALGASTCSLLAIAIERHLTMIKMRPYDASNNFRLFLLISACWVISLILGGLPIMGWNCISALSSCSTILPLYSKKYIAFCISIFTAILVTIVILYARIYFLVKSSSRKVANHNNSERSMALLRTVVIVVSVFIACWSPLFILFLIDVACRVQACPILFKAQWFIVLAVLNSAMNPVIYTLASKEMRRAFFRLVCNCLVRGRGARASPIQPALDPSRSKSSSSNNSSHSPKVKEDLPHTAPSSCIMDKNAALQNGIFCN
notes: S1P3, human, the part before the printed TM4 stretch (NKRHRV...); TM4 of S1P1, human, put in place of TM4 of S1P3; S1P3, human, the part after the printed TM4 stretch (...NLPDCS); TM4 of S1P3 ([residues removed]) replaced with TM4 of S1P1; source: HEK293A, transiently transfected, in cells; not shown: mCitrine (mCit), C-terminal, kept
Binder B1 has a BRET50 (CXCR4-Rluc8) of 12.7 ± 0.687.

B2: mCit-tagged S1P3(TM3) (receptor, human)
chain: MATALPPRLQPVRGNETLREHYQYVGKLAGRLKEASEGSTLTTVLFLVICSFIVLENLMVLIAIWKNNKFHNRMYFFIGNLALCDLLAGIAYKVNILMSGKKTFKLTPAQWFLREGSMFVALSASVFSLLAIAIERYITMLKMKLHNGNKRHRVFLLIGMCWLIAFTLGALPILGWNCLHNLPDCSTILPLYSKKYIAFCISIFTAILVTIVILYARIYFLVKSSSRKVANHNNSERSMALLRTVVIVVSVFIACWSPLFILFLIDVACRVQACPILFKAQWFIVLAVLNSAMNPVIYTLASKEMRRAFFRLVCNCLVRGRGARASPIQPALDPSRSKSSSSNNSSHSPKVKEDLPHTAPSSCIMDKNAALQNGIFCN
notes: S1P3, human, the part before the printed TM3 stretch (SLSPTV...); TM3 of S1P1, human, put in place of TM3 of S1P3; S1P3, human, the part after the printed TM3 stretch (...RPYDA); TM3 of S1P3 ([residues removed]) replaced with TM3 of S1P1; source: HEK293A, transiently transfected, in cells; not shown: mCitrine (mCit), C-terminal, kept
B2 gave a BRET50 (CXCR4-Rluc8) of 6.97 ± 0.473.

B3: CXCR4-mCit, P61073 1-352 (receptor)
chain: MEGISIYTSDNYTEEMGSGDYDSMKEPCFREENANFNKIFLPTIYSIIFLTGIVGNGLVILVMGYQKKLRSMTDKYRLHLSVADLLFVITLPFWAVDAVANWYFGNFLCKAVHVIYTVNLYSSVLILAFISLDRYLAIVHATNSQRPRKLLAEKVVYVGVWIPALLLTIPDFIFANVSEADDRYICDRFYPNDLWVVVFQFQHIMVGLILPGIVILSCYCIIISKLSHSKGHQKRKALKTTVILILAFFACWLPYYIGISIDSFILLEIIKQGCEFENTVHKWISITEALAFFHCCLNPILYAFLGAKFKTSAQHALTSVSRGSSLKILSKGKRGGHSSVSTESESSSFHSS
For B3, the BRET50 [1] was 15.6, the BRET50 [2] was 9.53 and the BRET50 [3] was 2.74. For the same binder, the BRET50 [4] was 22.8 and the BRET50 [5] was 20.1.

B4: mCit-tagged S1P1(TM3) (receptor, human)
chain: MGPTSVPLVKAHRSSVSDYVNYDIIVRHYNYTGKLNISADKENSIKLTSVVFILICCFIILENIFVLLTIWKTKKFHRPMYYFIGNLALSDLLAGVAYTANLLLSGATTYSLSPTVWFLREGSMFVALGASTCSLLAIAIERHLTMIKMRPYDASNNFRLFLLISACWVISLILGGLPIMGWNCISALSSCSTVLPLYHKHYILFCTTVFTLLLLSIVILYCRIYSLVRTRSRRLTFRKNISKASRSSEKSLALLKTVIIVLSVFIACWAPLFILLLLDVGCKVKTCDILFRAEYFLVLAVLNSGTNPIIYTLTNKEMRRAFIRIMSCCKCPSGDSAGKFKRPIIAGMEFSRSKSDNSSHPQKDEGDNPETIMSSGNVNSSS
notes: S1P1, human, the part before the printed TM3 stretch (KLTPAQ...); TM3 of S1P3, human, put in place of TM3 of S1P1; S1P1, human, the part after the printed TM3 stretch (...KLHNG); TM3 of S1P1 ([residues removed]) replaced with TM3 of S1P3; source: HEK293A, transiently transfected, in cells; not shown: mCitrine (mCit), C-terminal, kept
In the case of B4, the BRET50 (CXCR4-Rluc8) is reported as 7.24 ± 0.501.

B5: mCit-tagged S1P1(TM4) (receptor, human)
chain: MGPTSVPLVKAHRSSVSDYVNYDIIVRHYNYTGKLNISADKENSIKLTSVVFILICCFIILENIFVLLTIWKTKKFHRPMYYFIGNLALSDLLAGVAYTANLLLSGATTYKLTPAQWFLREGSMFVALSASVFSLLAIAIERYITMLKMKLHNGNKRHRVFLLIGMCWLIAFTLGALPILGWNCLHNLPDCSTVLPLYHKHYILFCTTVFTLLLLSIVILYCRIYSLVRTRSRRLTFRKNISKASRSSEKSLALLKTVIIVLSVFIACWAPLFILLLLDVGCKVKTCDILFRAEYFLVLAVLNSGTNPIIYTLTNKEMRRAFIRIMSCCKCPSGDSAGKFKRPIIAGMEFSRSKSDNSSHPQKDEGDNPETIMSSGNVNSSS
notes: S1P1, human, the part before the printed TM4 stretch (SNNFRL...); TM4 of S1P3, human, put in place of TM4 of S1P1; S1P1, human, the part after the printed TM4 stretch (...ALSSCS); TM4 of S1P1 ([residues removed]) replaced with TM4 of S1P3; source: HEK293A, transiently transfected, in cells; not shown: mCitrine (mCit), C-terminal, kept
With B5 the BRET50 (CXCR4-Rluc8) was 7.19 ± 0.559.
